Data from US20220175839.

What was measured:
Test in all cases: cell_activity
TALEN 103104 (synthetic) = conditions: pair with 103103; K562, 400 ng
TALEN 103074 (synthetic) = conditions: pair with 103073; K562, 400 ng
TALEN 103054 (synthetic) = conditions: pair with 103053; K562, 400 ng
TALEN 103085 (synthetic) = conditions: pair with 103086; K562, 400 ng
TALEN 103087 (synthetic) = conditions: pair with 103088; K562, 400 ng
TALEN 103064 (synthetic) = conditions: pair with 103063; K562, 400 ng
TALEN 103090 (synthetic) = conditions: pair with 103089; K562, 400 ng
TALEN 103093 (synthetic) = conditions: pair with 103094; K562, 400 ng
TALEN 103079 (synthetic) = conditions: pair with 103080; K562, 400 ng
TALEN 103098 (synthetic) = conditions: pair with 103097; K562, 400 ng
TALEN 103049 (synthetic) = conditions: pair with 103050; K562, 400 ng
TALEN 103068 (synthetic) = conditions: pair with 103067; K562, 400 ng
TALEN 103105 (synthetic) = conditions: pair with 103106; K562, 400 ng
TALEN 103103 (synthetic) = conditions: pair with 103104; K562, 400 ng
TALEN 103077 (synthetic) = conditions: pair with 103078; K562, 400 ng
TALEN 103058 (synthetic) = conditions: pair with 103057; K562, 400 ng
TALEN 103073 (synthetic) = conditions: pair with 103074; K562, 400 ng
TALEN 103067 (synthetic) = conditions: pair with 103068; K562, 400 ng
TALEN 103071 (synthetic) = conditions: pair with 103072; K562, 400 ng
TALEN 103052 (synthetic) = conditions: pair with 103051; K562, 400 ng
TALEN 103082 (synthetic) = conditions: pair with 103081; K562, 400 ng
TALEN 103051 (synthetic) = conditions: pair with 103052; K562, 400 ng
[1] = system: SBS55254 ZFN (TCRA) (synthetic); conditions: pair with 55248; T cells, TRAC 180, day 10
TALEN 103066 (synthetic) = conditions: pair with 103065; K562, 400 ng
TALEN 103056 (synthetic) = conditions: pair with 103055; K562, 400 ng
TALEN 103101 (synthetic) = conditions: pair with 103102; K562, 400 ng
TALEN 103057 (synthetic) = conditions: pair with 103058; K562, 400 ng
TALEN 103055 (synthetic) = conditions: pair with 103056; K562, 400 ng
TALEN 103094 (synthetic) = conditions: pair with 103093; K562, 400 ng
TALEN 103097 (synthetic) = conditions: pair with 103098; K562, 400 ng
TALEN 103099 (synthetic) = conditions: pair with 103100; K562, 400 ng
TALEN 103088 (synthetic) = conditions: pair with 103087; K562, 400 ng
TALEN 103069 (synthetic) = conditions: pair with 103070; K562, 400 ng
TALEN 103050 (synthetic) = conditions: pair with 103049; K562, 400 ng
TALEN 103076 (synthetic) = conditions: pair with 103075; K562, 400 ng
TALEN 103092 (synthetic) = conditions: pair with 103091; K562, 400 ng
TALEN 103081 (synthetic) = conditions: pair with 103082; K562, 400 ng
TALEN 103100 (synthetic) = conditions: pair with 103099; K562, 400 ng
TALEN 103062 (synthetic) = conditions: pair with 103061; K562, 400 ng
TALEN 103053 (synthetic) = conditions: pair with 103054; K562, 400 ng
TALEN 103096 (synthetic) = conditions: pair with 103095; K562, 400 ng
TALEN 103061 (synthetic) = conditions: pair with 103062; K562, 400 ng
TALEN 103091 (synthetic) = conditions: pair with 103092; K562, 400 ng
TALEN 103086 (synthetic) = conditions: pair with 103085; K562, 400 ng
TALEN 103095 (synthetic) = conditions: pair with 103096; K562, 400 ng
TALEN 103065 (synthetic) = conditions: pair with 103066; K562, 400 ng
TALEN 103075 (synthetic) = conditions: pair with 103076; K562, 400 ng
TALEN 103084 (synthetic) = conditions: pair with 103083; K562, 400 ng
TALEN 103089 (synthetic) = conditions: pair with 103090; K562, 400 ng
TALEN 103072 (synthetic) = conditions: pair with 103071; K562, 400 ng
TALEN 103083 (synthetic) = conditions: pair with 103084; K562, 400 ng
TALEN 103070 (synthetic) = conditions: pair with 103069; K562, 400 ng
TALEN 103063 (synthetic) = conditions: pair with 103064; K562, 400 ng
TALEN 103102 (synthetic) = conditions: pair with 103101; K562, 400 ng

ATACTCATCTTTTTCAGTGGG (double strand) [TALEN 103104 site]
activity (TALEN 103104 (synthetic)): 44.9 % indel

ATAGCAATTCAGGAAATTTGA (double strand) [TALEN 103074 site]
activity (TALEN 103074 (synthetic)): 3 % indel

ATAGCCTCCAGGCCAGAAAGA (double strand) [TALEN 103054 site]
activity (TALEN 103054 (synthetic)): 32.4 % indel

ATCCATCCGACATTGAAGTTG (double strand) [TALEN 103085 site]
activity (TALEN 103085 (synthetic)): 3.9 % indel

ATCCGACATTGAAGTTGACTT (double strand) [TALEN 103087 site]
activity (TALEN 103087 (synthetic)): 10.5 % indel

ATGACGTGAGTAAACCTGAAT (double strand) [TALEN 103064 site]
activity (TALEN 103064 (synthetic)): 14.8 % indel

ATGCTCCACTTTTTCAATTCT (double strand) [TALEN 103090 site]
activity (TALEN 103090 (synthetic)): 16.1 % indel

ATGGAGAGAGAATTGAAAAAG (double strand) [TALEN 103093 site]
activity (TALEN 103093 (synthetic)): 20.2 % indel

ATGTGTCTGGGTTTCATCCAT (double strand) [TALEN 103079 site]
activity (TALEN 103079 (synthetic)): 42.3 % indel

ATTCAGTGTAGTACAAGAGAT (double strand) [TALEN 103098 site]
activity (TALEN 103098 (synthetic)): 52 % indel

ATTCGGGCCGAGATGTCTCGC (double strand) [TALEN 103049 site]
activity (TALEN 103049 (synthetic)): 19.5 % indel

ATTCTCTGCTGGATGACGTGA (double strand) [TALEN 103068 site]
activity (TALEN 103068 (synthetic)): 49.3 % indel

CTACACTGAATTCACCCCCAC (double strand) [TALEN 103105 site]
activity (TALEN 103105 (synthetic)): 14.2 % indel

CTATCTCTTGTACTACACTGA (double strand) [TALEN 103103 site]
activity (TALEN 103103 (synthetic)): 44.9 % indel

CTATGTGTCTGGGTTTCATCC (double strand) [TALEN 103077 site]
activity (TALEN 103077 (synthetic)): 17.1 % indel

CTCACGCTGGATAGCCTCCAG (double strand) [TALEN 103058 site]
activity (TALEN 103058 (synthetic)): 46.2 % indel

CTCACGTCATCCAGCAGAGAA (double strand) [TALEN 103073 site]
activity (TALEN 103073 (synthetic)): 3 % indel

CTCAGGTACTCCAAAGATTCA (double strand) [TALEN 103067 site]
activity (TALEN 103067 (synthetic)): 49.3 % indel

CTCCAAAGATTCAGGTTTACT (double strand) [TALEN 103071 site]
activity (TALEN 103071 (synthetic)): 13.3 % indel

CTCCAGGCCAGAAAGAGAGAG (double strand) [TALEN 103052 site]
activity (TALEN 103052 (synthetic)): 63.8 % indel

CTCCATTCTTCAGTAAGTCAA (double strand) [TALEN 103082 site]
activity (TALEN 103082 (synthetic)): 27.5 % indel

CTCCGTGGCCTTAGCTGTGCT (double strand) [TALEN 103051 site]
activity (TALEN 103051 (synthetic)): 63.8 % indel

CTCCTGAAAGTGGCCGGGTTTAATCTGC (double strand) [TCRA 55254 site]
activity [1]: 66 % indel

CTCTGCTGGATGACGTGAGTA (double strand) [TALEN 103066 site]
activity (TALEN 103066 (synthetic)): 41.2 % indel

CTGGATAGCCTCCAGGCCAGA (double strand) [TALEN 103056 site]
activity (TALEN 103056 (synthetic)): 25.1 % indel

CTGGTCTTTCTATCTCTTGTA (double strand) [TALEN 103101 site]
activity (TALEN 103101 (synthetic)): 15.5 % indel

CTGTGCTCGCGCTACTCTCTC (double strand) [TALEN 103057 site]
activity (TALEN 103057 (synthetic)): 46.2 % indel

CTTAGCTGTGCTCGCGCTACT (double strand) [TALEN 103055 site]
activity (TALEN 103055 (synthetic)): 25.1 % indel

CTTGCTGAAAGACAAGTCTGA (double strand) [TALEN 103094 site]
activity (TALEN 103094 (synthetic)): 20.2 % indel

CTTGTCTTTCAGCAAGGACTG (double strand) [TALEN 103097 site]
activity (TALEN 103097 (synthetic)): 52 % indel

CTTTCAGCAAGGACTGGTCTT (double strand) [TALEN 103099 site]
activity (TALEN 103099 (synthetic)): 15.3 % indel

CTTTTTCAATTCTCTCTCCAT (double strand) [TALEN 103088 site]
activity (TALEN 103088 (synthetic)): 10.5 % indel

GTACTCCAAAGATTCAGGTTT (double strand) [TALEN 103069 site]
activity (TALEN 103069 (synthetic)): 27.9 % indel

GTAGCGCGAGCACAGCTAAGG (double strand) [TALEN 103050 site]
activity (TALEN 103050 (synthetic)): 19.5 % indel

GTCAACTTCAATGTCGGATGG (double strand) [TALEN 103076 site]
activity (TALEN 103076 (synthetic)): 1.5 % indel

GTCTGAATGCTCCACTTTTTC (double strand) [TALEN 103092 site]
activity (TALEN 103092 (synthetic)): 48.5 % indel

GTCTGGGTTTCATCCATCCGA (double strand) [TALEN 103081 site]
activity (TALEN 103081 (synthetic)): 27.5 % indel

GTGAATTCAGTGTAGTACAAG (double strand) [TALEN 103100 site]
activity (TALEN 103100 (synthetic)): 15.3 % indel

GTGAGTAAACCTGAATCTTTG (double strand) [TALEN 103062 site]
activity (TALEN 103062 (synthetic)): 22.9 % indel

GTGGCCTTAGCTGTGCTCGCG (double strand) [TALEN 103053 site]
activity (TALEN 103053 (synthetic)): 32.4 % indel

GTGTAGTACAAGAGATAGAAA (double strand) [TALEN 103096 site]
activity (TALEN 103096 (synthetic)): 42 % indel

GTGTCTTTTCCCGATATTCCT (double strand) [TALEN 103061 site]
activity (TALEN 103061 (synthetic)): 22.9 % indel

GTTGACTTACTGAAGAATGGA (double strand) [TALEN 103091 site]
activity (TALEN 103091 (synthetic)): 48.5 % indel

TTCAATTCTCTCTCCATTCTT (double strand) [TALEN 103086 site]
activity (TALEN 103086 (synthetic)): 3.9 % indel

TTCAGACTTGTCTTTCAGCAA (double strand) [TALEN 103095 site]
activity (TALEN 103095 (synthetic)): 42 % indel

TTCCTCAGGTACTCCAAAGAT (double strand) [TALEN 103065 site]
activity (TALEN 103065 (synthetic)): 41.2 % indel

TTCCTGAATTGCTATGTGTCT (double strand) [TALEN 103075 site]
activity (TALEN 103075 (synthetic)): 1.5 % indel

TTCTCTCTCCATTCTTCAGTA (double strand) [TALEN 103084 site]
activity (TALEN 103084 (synthetic)): 32.2 % indel

TTGAAGTTGACTTACTGAAGA (double strand) [TALEN 103089 site]
activity (TALEN 103089 (synthetic)): 16.1 % indel

TTGACTTTCCATTCTCTGCTG (double strand) [TALEN 103072 site]
activity (TALEN 103072 (synthetic)): 13.3 % indel

TTTCATCCATCCGACATTGAA (double strand) [TALEN 103083 site]
activity (TALEN 103083 (synthetic)): 32.2 % indel

TTTCCATTCTCTGCTGGATGA (double strand) [TALEN 103070 site]
activity (TALEN 103070 (synthetic)): 27.9 % indel

TTTTCCCGATATTCCTCAGGT (double strand) [TALEN 103063 site]
activity (TALEN 103063 (synthetic)): 14.8 % indel

TTTTTCAGTGGGGGTGAATTC (double strand) [TALEN 103102 site]
activity (TALEN 103102 (synthetic)): 15.5 % indel
